# Experimental data taken from the nanobody polyreactivity screen of Harvey et al. (2022).
# Test: yeast display, Sf9 membrane polyspecificity reagent, FACS + sequencing; frameworks hold sequencing errors
# Method in brief: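 Galactose-induced (36–48 hours) yeast carrying a synthetic nanobody display library were exposed to 10% biotinylated, detergent-solubilized Sf9 membrane reagent at 4 °C for 1 hour. FACS followed streptavidin microbead enrichment, using low and high (top ~1%) gates for expression (anti-HA) and reagent binding (streptavidin). Colony PCR, MiSeq 2 × 250 sequencing and CDR-length filtering followed. Labels for polyreactivity reflect the gate of origin.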
row,Sequence,polyreactivity (PSR sort gate)
1,QVHLVESGGGLVQAGGSLSLSCDASGRTFYENAMGWYRQAPGKERELVAAISQSSGSTYYADSVKGRFTISRDNAKNTVYLQMNSLKPEDTAVYYCAAVQGANYYNEFDYWGQGTQVTVSS,high polyreactivity
2,QVHLVESGGGLVQAGGSQRLSCAASGSIFKYYAKAWYRQQPGKERELVATITNGGNTNYADSVYGRFTISRDNPKKTVYLQRNSLKPEDTAVYYCAARLWCKRYSSPTSLQRYDYWRQGTQVTVSS,high polyreactivity
3,QVHLVESGGGLVQAGGTLRLSCAASGSIFATYGMGSYRQAPGKERELVAAITSSGGSTYYADSVKGRFTISRDHAKNTVYLQMNSLKPEDTAVYYFAADSYIIWYGSVVSYGEDSWGQGTQVTVSS,low polyreactivity
4,QVHLVESGGGLVQEGGSLPLTCAASGSTLRYYDMGWYRQPPRKERELFAAITTSGDDTYYADSVKRLFTISRDNAKYIVYLQMNSLKPEDTAVYYCAADGYGGHKYELESWGQGTQVTVSS,low polyreactivity
5,QVHLVESGGGLVQEGGSLRISCAASGSSFSHYTMGWYIQAPGKERELVAAISYRGGSTYYADSLKGRFTISRDNAKNTVYFQSNSLKPEDTAVYYCAAVGYYSTVRRYDYWGQRTQVTVSS,low polyreactivity
6,QVHLVESGGGLVQEGGSLRLSCAASGIIFLWYTMGWYRQAPGKERELVATISWGGGSTYADSVNGRFTISRDNAKNTVYIQMYILQPEDTAVYYCAADNRDFRGQGYDYWGQGTQVTVSS,low polyreactivity
7,QVHLVESGGGLVQEGGSLRLSCPACGSTIRGNAMGWYRQAPGKERELVADITRNGGRTYYADSVKGRFTISRDNAKNNVYLQMNSLKPEDTAVYYCAKRDAYCVTQRNMDYWGQGTQVTVSS,high polyreactivity
8,QVHLVESGGVLVQAGGSLRLSCAASGSTFLYYAMGRYRQAPGKEREFVASISGSGGSTNYADSVKGRFTISRDNAKNTVSLQMNSLKPEDTAVYYCAKEYVTEFQGYYDWGQGSQVTVSS,low polyreactivity
9,QVHLVESGGVLVQAGGSLSLSCAASGRTFIRNAMGWYRQAPGKERELVAAINSGGITNYADSVKGRFTISRDNAKNTVYLQMNSLKPEDTAVYYCNARQVLYGLYLRAYPYEYWGQGTQVTVSS,low polyreactivity
10,QVHLVESGVGLVQAGGSLRLSCAAYGSTCGWYAMGWYRQAPGKERELVASITWDGGRTYYADSVKGRFTISRDNAKNTVYLQMISQKPEDTAVYYCAARGVSSPLNYWGQGNQVTVSS,low polyreactivity
11,QVHLVESRGGLVQAGGSLRLSCAASGMGWNRHAPGKERELVATIPWSDGITYADSVKGRFTISRDNAKNTVYLQMNSLKQEVTAVYYCNADWDQTGTVFFSFGLREMDSWGQGTQVTVSS,low polyreactivity
12,QVHLVESRGVLVQAGGSLRLSCAASGFTFNRNAMGWYRQAPGKERELVAAISTSGGRTYYADSVKGRFTISRDNAKNTVYLHMNSLKPEDTAVYYCAADGIYPVGVDYWGQGTQVTVSS,high polyreactivity
13,QVHLVESRGVLVQAGGSLRLSCAASGRTFQPYAMGWYRQSPGKERELVADITWNTGRTYYADSVKGRFTISRDNAKNTVYLQMNSLIPEDTAVYYCAGDDLGDYRFYKIYDYWGQGTQVTVSS,high polyreactivity
14,QVHLVESVGGLDQAGGSLRLSCAASGFIFVRYAMGWYRQAHGKEREFVAVISRRGGSTHYADSVKARFTISRDNAKNTVYLQMNSLKPEDTAVYYCNVRQGGPTVTWEYDYWGQGTQGTVSS,high polyreactivity
15,QVHLVESVGGLVQAGGSLRLSCAASGFIFNRNAMGRYRQAPGKERELVAAITRAGSTSYADSVKGRFTISRDNAKNTVYLQMNSLKPEDTGVYYCAAKPFWLYAPRGWRYHYGYWGQGTQVTVSS,high polyreactivity
16,QVHLVESVGGLVQAGGSLRLSCAASGRTFGGYAMGWYRQAHGKERELVAAIRRSGGSTYYADSVKGRFTISRDNAKNTVYLQMNSVKPEDTAVYYCAASGIYNVRMYYWGQGTLVTVSS,high polyreactivity
17,QVHLVESWGCLVQAGGSLRLSCAASGSTFTGYAMGWYRHAPGKESEMVAAISRSGGSTSAADSVKGRFTISRDNAKNTVYLQMNSLKPEDTAVYYCAAQVQGTTRDKQRGGIGELDYWGQGTQVTVSS,low polyreactivity
18,QVHLVESWGGLVQAGGSLRLSCAASGSTFSDYAMGWYRQAPGKERELVAGITGGGGTYYADSVKGRFTISRDNAKNTVSLHMNSLTPEDTARYYCAAGRRHGFGYWGQGTQVTVSS,low polyreactivity
19,QVHLVETGGGLVQAGGSLRLSCAASGSTFSFNAMGWYRQAPGKERELVAAISTSGGDTYYADSVKGRFTISRDNAKNTVYLQMNSLKPEDTAVYYCAAEYQVPGGSWMDYWGQGTQVTVSS,high polyreactivity
20,QVHLVQSGGGIVQAGGSLRLSCAASGIIIRRYVMGWYRQAPGKERELVATISSSGGSTYYADSVKGRFTISRDNAKTTVYLQMNSLKPEDTAVYYCAVRYYGSGRYYYTYYSWGQGTQVTVSS,high polyreactivity

row,Sequence,polyreactivity (PSR sort gate)
1,QVHRGESGGGLVQAGGSLRLSCPASGFIFRYYPMGWYRQAPGKESELVASISYSGGTTYYADSVKGRFTISRDNAKNTVYLQMNSLKPEDTAVYYCNVYSRTHYQTYTDDYWGQGTQVTVSS,high polyreactivity
2,QVKHVESGGGLVQAGGSLRLSCAASGFTFYTYAMGWYRQKPGKESELVATISSGGRTNYADSVKGRFTISRDNAKNTVYLQMNSLKPEDTAVYYCYKRHRGGAVRFDSWGQGTQVTVSS,low polyreactivity
3,QVKHVESVGGLVQAGGSLRLSCAASGITFVRNAMGWSRQAPGKETDLVAAISSGGGSTYYADSVKGRFTISRDNAKNTVYLQMNSLKPEDTAVYYCNAQGFIYYWLRYDYWGQGTQVTVSS,high polyreactivity
4,QVKILESGGGLVQAVCSLRLSCASGSTYLYAMGRYRQAPVKEREMVATISSTGSTYYADSVKGRFTISRDNAKNTVYLQMNSLKPEDTAVYYCAADVCNNGWIYGSYDEYDYWGQGTQVTVSS,high polyreactivity
5,QVKLEESGGGLVQAGGSLRLSCAASGFIFGSYAMGWYRQAPGKERELVAVISSSGGRTYYADSVKGRFTISRDNAKNTVYLQMNSLKPEDTAVYYCAAPWIARKYSPSEYDWGQGTQVTVSS,high polyreactivity
6,QVKLVDSGVGLVQAGVSLRLSCAASGSIFGTYAMGWYRQAPGKERELVAAISYRGTSTYYADSVKGRFTISRDNAKNTVYLQMNSLKPEDTAVYYCAARHGYTYRSGYYYWGQGTQVTVSS,high polyreactivity
7,QVKLVESAGGLVQAGASLRLSCAPSGITFKRYAMGWSSQQPGKQSELVAAITSGGSTHYADSVKGRFTISRDNAKNTVYLQMNTLKPEDTAVYYCATRRYKWGVRYDYWGQGTQVTVSS,high polyreactivity
8,QVKLVESAGGLVQAGGSLRLSCPASGRTFYRYVMGWSRQEPGKERELVAAITPGGSTYADSVKGRFTISRDNAKNTVYLQMNSLKPEDTAVYYCNKRKASSSGYNYWGQGTQVTVSS,low polyreactivity
9,QVKLVESCGGLVQAGGSLRLSCAASGFIFRNYAMGWYRQARGKERELVAAIDYSVGSTNYADSVKWRFTISRDNAKNTVYLQMNSLKPEDTAVYYCNAEYTWHRGYDYFGQGTQVTVSS,low polyreactivity
10,QVKLVESGGALVQAGGSLRLSCAASGSTFGWYAMGRYRQAPGKERELVAGISSGGASTYYADSVKGRFTISRDNAKNTFYLQMNSLKPEDSAVYYCAKDQIFRGYKTKFGYWGQGTQLTVSS,low polyreactivity
11,QVKLVESGGALVQAGGSLRLSCPASGRTFGQTAMGWYRQAPGKERELVAAITWSDDDTYYADSVKGRFTISRDNAKNTVYLQMNSLKPEDTAVYYCAATYPYRQYDYWGQGTQVTVSS,low polyreactivity
12,QVKLVESGGGIVKAGCSLRLSCGASGLTYNTYDMGWYRQAPGKERELVADISRGRGSTYYADSVKGRFTISRDNAKNTVYLQMHSLKPEDTAFYYCNAEKRSSYLMYDYWGQGTQVTVSS,high polyreactivity
13,QVKLVESGGGLDKAGGSLRLSCAASGLIFYLYPKGWYRQAPGQERELVAAISRSGDTTYYADSVKGRFTISRDNAKNTVYLQMNSLKPEDTAVYYCAADDYYKFDYWGQGTQVTVSS,low polyreactivity
14,QVKLVESGGGLVKAGGRLRLSCAASGRTFWYNAMGRYRPAPGKESELVAAINFSGGITYYADSVKGRFTISRDNAKNTVYLQMNSLKPEDTAVYYCNAVSRGRDAAGNYWGQGTQVTVSS,high polyreactivity
15,QVKLVESGGGLVKAGGSIRLSCAASGFTFGVYAKGSYRQAPAKERELVAAISTTVGSTYYADSVKGRFTISRDNAKNTVYLQMNSLKPEVTAVYYCSAEYTGYINYYIYEYWGQGTQVTVSS,low polyreactivity
16,QVKLVESGGGLVQAGGILRLSCAASGLIFTTYAMGWYRQAPGKERELVAVISGCGSTSYADSVKGRFTISRDNAKNTVYLQMNSLKPEDTAVYYCAADKPVSQGPIPGYTNDYWGQGTQVTVSS,low polyreactivity
17,QVKLVESGGGLVQAGGRLRLSCAASGSIFLLYPMGWYRQAPGKERELVAAISSGGSTYADSVKGRFTISRDNAKNTVYLLLNSLKPADTAVYYGAKVGGWYDPYTYGYSEYGYWGNGTQVTVSS,low polyreactivity
18,QVKLVESGGGLVQAGGSHRLSCPASGRIFYPYAMGWYRQAPGKESELVAAISWSTVSTYYADSVKGRFTISRDNAKNNVYLQMNSLKPEDTAVYYCAARLYFSSSLRCVDFWGQGTQVTVSS,high polyreactivity
19,QVKLVESGGGLVQAGGSLLLSCAASVLTFYRYVIVCYRQEPGKERELVAAITKSGGSTYYADSVKGRFTISRDNAKNTVYLQMNSLKPEDTAVYYCAVRSYWRGDYWGQGTQVTVSS,high polyreactivity
20,QVKLVESGGGLVQAGGSLRLICAASGNTFGPYDMGWYRQAPGKERQLVAGITSGGSTYYADSVKGSFTITRDNAKNTVYLQMNSLKPEDTAVYYCAADYYLWVYWYDYWGQGTQVTVSS,high polyreactivity
